Earlier results in publication PMC4340714.
pKd: −log10 of the molar value.

Target: Mst2 kinase domain (Homo sapiens) (UniProt Q13188)
UniProt Q13188, sequence (Q13188 27-278): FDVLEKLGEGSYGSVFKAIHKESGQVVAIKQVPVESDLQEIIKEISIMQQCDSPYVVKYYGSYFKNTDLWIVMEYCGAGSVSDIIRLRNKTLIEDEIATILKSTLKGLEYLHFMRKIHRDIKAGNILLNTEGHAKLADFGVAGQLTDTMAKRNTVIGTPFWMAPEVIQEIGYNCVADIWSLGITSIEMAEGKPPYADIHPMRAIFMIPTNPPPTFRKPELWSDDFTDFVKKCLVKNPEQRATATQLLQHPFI

For “Mst1 kinase domain (from UniProt Q13043)”, the pKd is listed as 4.44.
